Results published in the nanobody polyreactivity screen of Harvey et al. (2022).

test: yeast display, Sf9 membrane polyspecificity reagent, FACS + sequencing; frameworks hold sequencing errors
Outline: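 Genes from sorted yeast were amplified by colony PCR, read by MiSeq 2 × 250 sequencing and filtered on CDR length. These cells carried a synthetic nanobody library in Saccharomyces cerevisiae BJ5465 and were sorted by FACS into low and high (top ~1%) gates on anti-HA and streptavidin fluorescence. Polyreactivity is labelled according to the gate of origin.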

Row | Sequence | polyreactivity (PSR sort gate)
1 | QVQLEESGGGLDQAGGSLRLSCAASGLILDYNDIGGYRQAAGQERELVASITGGGSTYYADSVKGRFRISRDNAKNTVYLQMNSLKPQDTSVYSCNADPVGVYCFDLDYWGQGTQVTVSS | low polyreactivity
2 | QVQLEESGGGLDQAGGSLRLSCAASGRTLATYAMGWYRQAPGKERELVAAISSSGTRTYYADSVKGRFTISRDNAKNTVYFQMNSLNPEDTAVYYCNAGPGYDYWGQGTQLTVSS | high polyreactivity
3 | QVQLEESGGGLFQAGGSLRLICAATGSIFRVYVMGWYIQAPGKERELVAAITSSDGTTYYADSVKGRFTISRDNAKNTVYLQMNSLKPEDTALYYCNAEFYSPPVVGPRYWYPGFYWGQGTQVTVSS | low polyreactivity
4 | QVQLEESGGGLFQAGGSLRLSCAASGSTFADNAMGWYRQATGKEAEFVAGISTNGGSTYYADSVKGRFTISRDNAKNTVYLQMNSLKPEDTAVYYCNADSIDPFLYDYWGQGTQVTVSS | low polyreactivity
5 | QVQLEESGGGLRQAGGRLRLSCAASGRTFYVNAKGWYRQAPGKERELVAAISWSGGSTYYADSVKGRFTITRDNAKNTVYLQMNSLKPEDTAVYYCAAEDIEVYEYWGQGTQVTVSS | low polyreactivity
6 | QVQLEESGGGLVHAGGSLRLSCAASGFTFYSYAMGWYRQAPGKERELVAAITQSGGSTYYADSVKGRFTISRDNAKNTVYFQMNSLKPEDTAVYYCAAGRRSSWRYYLWYDYWGQGTQVTVSS | low polyreactivity
7 | QVQLEESGGGLVHAGGSLRLTCDAYGYIFALNPIVWNRQAPGNESEVVAAINDSGDSTYYADSLKGRFTISRDNSKNTVYLQMNSLNPEDSAVYYCAADTRYRYGAFPYYEYDNWGQGTQVTVSS | low polyreactivity
8 | QVQLEESGGGLVKARGSLRLSCAASGRTFNFYYMGWYRQAPGKERELVAAISSSGGSTYYADSVKGRFTISRDTAKYTVYLQMISLIPEDTAVYYCAKGPLYSLCFQHDAPYRYGYWGQATQVTVSS | low polyreactivity
9 | QVQLEESGGGLVQAEGSLRLICAASGSTFVYAMGWYRQSPGKERELVAAISYSGGSTYYADSVKGRFTISRDNAKTTVYLQMNSLKPEDTAVYYCAAYLVISAQRYYYWGQGTQVTVSS | high polyreactivity
10 | QVQLEESGGGLVQAGCSLRLSCAASGSTFVRYAMGWYRQAPGKERELVAAISWSGASTYYADSVKGRFTISRDNAKNTVYLQMNSLKPEDTAVYYCAARSRWYDAAGYQKYYYWGQGSQVTVSS | high polyreactivity
11 | QVQLEESGGGLVQAGGRLRLSCAASGIIYDFYAMGWYRQAPGKERELVAAITSSGGSTYYADSVKGRFTISRDNAKKTVYLQMNSLKPEDTAVDYCAAEYTIYGTDQRYYYWGQGTQVTVSS | low polyreactivity
12 | QVQLEESGGGLVQAGGRLRLSCAASGRIIYGYAMGWYRQAPGKERELVAAITATYYADSVKGRFTISRDNAKNTVYLQMNSLKPEDTAVYYCYAYLSPKQPLSPPDPTFEGGYWGQGTQVTVSS | low polyreactivity
13 | QVQLEESGGGLVQAGGRLRLSCAASGRIYTKYAMGWYRQAPGKERELVAAISGSGGNTYYADSVKGRFTISRDNAKNTVYLQMNSLKPEDTAVYYCNRAKNAYLMDYWGQGTQVTVSS | high polyreactivity
14 | QVQLEESGGGLVQAGGRLRLSCAASGSIFGFYAMGWYRQAPGKERELVASITISGGSTYYADSVKGRFTISRDNAKNTVYLQMNSLKPEDTAVYYGAARRYWDYNYWGQGTQVTVSS | low polyreactivity
15 | QVQLEESGGGLVQAGGRLRLSCAASGSIWSYAMGWYRQAPGKERELVAAISSTGGSTYYADSVKGRFTISRDNAKNTVYLQMNSLKPEDTAVYYCAKGRRYDQSHYNYWGQGTQVNVSS | high polyreactivity
16 | QVQLEESGGGLVQAGGSHRLSCAASGPTFRRNVMGWSRQAPGKEREFVAAITWSGGNTYYADSVKGRITISRDNAKYTVFLQMYSLKREDTAVYYCNARSAIWGWGYGSYDYWGLGTQVTVSS | low polyreactivity

Row | Sequence | polyreactivity (PSR sort gate)
17 | QVQLEESGGGLVQAGGSIRLSCAASGSTLVGNAMGWYRQAPGKERELVATIDLSDDITYYADSVKGRFTSSRDNAKNTFYLQMNSLKPEDTAVYYCSAEYYLYSTYTVSYGKYDYWGQGTQGTVSS | high polyreactivity
18 | QVQLEESGGGLVQAGGSLRIICAASGRTFQLYAMGWYRQAPGKERELVAAITWSSGRTSYADSVKGRFTISRDNAKNTVYLQMNSLKPEDTAVYYCAADVWGGLLPGYDYWGQGTQVTVSS | high polyreactivity
19 | QVQLEESGGGLVQAGGSLRISCAASGSIVRYKAMGWYRQAHGKERELVAAISSRGGSTYYADSVKGRFTISRDNAKNTVYLQMNSLKPEDTAVYYCNVRWTYKYDYWGQGTQVTVSS | high polyreactivity
20 | QVQLEESGGGLVQAGGSLRLCCAASGFTFDYNAKGWYRQPPGKLRDLVAVISSSGSRTYYADSVKGRFTISRDYAKNTVYLQMNSLKPEDSAVYYWAGARIGTSDYWGQGTQVTESS | high polyreactivity
21 | QVQLEESGGGLVQAGGSLRLCCAASGRTFYYAMGWYRQATGKDRYADSVKGRFTISRDNAKNTVYLQMNSLKPDDTSVYYCAAKVTEPPSLDDSDYWGQGTQVTVSS | low polyreactivity
22 | QVQLEESGGGLVQAGGSLRLICAASGGTISKYAMGWYRQAPGTEMELVAAITYSSGSTYYADSVKGRFTISRDNAKNTVYLQMNSLKPEDTAVYYCAARSGLYWWRFDYWGQGTLVTVSS | high polyreactivity
23 | QVQLEESGGGLVQAGGSLRLICAASGRIFGVNAMGWYRQAHGKERELVAVISSGGSTYYADSVKGRFTISRDNAKNTVYLQMNSLKPEDTAVYYCNAVVGSWFPYNLSDYWGEGTQVTVSS | low polyreactivity
24 | QVQLEESGGGLVQAGGSLRLICAASGRTFSGNTMGWYIQAPGKERELVAAITGRGGSTYYADSEKGRFTISRDNEKNTVYLQMNSLKPVDTAVYYCAALRYTFAGRFDYWGQGTQVTVSS | high polyreactivity
25 | QVQLEESGGGLVQAGGSLRLICAASGRTFVYYAMGWYRQAPGKERELVAAISTGGSTNYADSVKGRFTISRDNAKNTVYLQMNSLKTEDTAVYYCAAQYYISISKYDYWGQGTQVTVSS | low polyreactivity
26 | QVQLEESGGGLVQAGGSLRLICADSGFTFVYYARGWYRQAPGKERELVATISGNGGRTYYADSVKGRFTISRDNAKNTVYLQMNSLKPEDTAVYYCNADDPYLYYDSYDYWGQGTQVTVSS | low polyreactivity
27 | QVQLEESGGGLVQAGGSLRLIWAASGFIFRTYTMGWYRQAPGKERELVATIDSSGGSTYYADSVKGRFTISRDNAKNTVYLQMNSLKPEDTAVYYCNADLRELSPWYWYSGEMDYWGQGTQVTVSS | low polyreactivity
28 | QVQLEESGGGLVQAGGSLRLSCAASGFICKRYARGWYRQAPGKERELVAAITTSGGRTYYADSVKGRFTISRDNAKNTVYLQMNSLIPEDTAVYYCAAAQPGTNAYRVGSWGQGTQVTVSS | high polyreactivity
29 | QVQLEESGGGLVQAGGSLRLSCAASGFIFAQYAMGWYRKAPRKDRELVAAISWSGGSTYYADSVKGRFTISRDNAKNTVYLQMNSLKPEDTAVYYCAALFRNKSRYRYGYWGQGTQVTVSS | high polyreactivity
30 | QVQLEESGGGLVQAGGSLRLSCAASGFIFPYYAMGWYRQAHGQERELVAAISRSGGRTYYADSVKGRFTISRDNAKNTVYLQMNSLKPEDTAVYYCNAPFQSEPFDYWGQGTQVTVSS | high polyreactivity
31 | QVQLEESGGGLVQAGGSLRLSCAASGFIFRYYAMGWYRQAPGKERELVAAISWSGGSTYYADSVKGRFTISRDNAKNTVYLQMNSLKPEETAVDYGAADRYAILFYAEDYWGQGTQVTVSS | low polyreactivity
32 | QVQLEESGGGLVQAGGSLRLSCAASGFIFVANAMGWYIQAPWKERELVAAISRRGGSTYYADSVKGRFTISRDNAKNTVYLQMNSLKPEDTAVYYCNAYRRGLSGYGYWGQGTQVTVSS | high polyreactivity
